According to article PMC9449670 (2022):
Where no end group is shown, it is not given here.

Assays:
[1] = biological target: T1, GsMTx4 (Grammostola spatulata, UniProt Q7YT39, not fully specified); assay: inside-out patch clamp dose-response (Hill fit, -50 mV)
T1 chain: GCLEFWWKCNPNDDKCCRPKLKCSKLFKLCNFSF

[2] = biological target: T2, Pept 02 (GsMTx4 loop2-derived peptide) (Grammostola spatulata, not fully specified (bridges); printed as Trp-Lys-Cys-Asn-Pro-Asn-Asp-Asp-Lys-Cys; cysteine pairing not given here); assay: as above
T2 chain: WKCNPNDDKC

B1: SAKcaC (stretch-activated BK channel) (protein)
chain: not shown
For B1, the Kd [1] was 47.2 nM and the Kd [2] was 23.8 nM.
